One data set addresses MBP tag only (UniProt P0AEX9 P0AEX9:27-396). The experiment in a line: EMSA; MBP tag control.
The target in data set [1] is p62 (SQSTM1, sequestosome 1) wild type (UniProt Q13501 Q13501:1-440). The experiment in a line: EMSA; apparent Kd, TBE pH 8.3 gel; competed by cold vtRNA1-1. The conditions noted are these: tags: MBP; (radioactive in EMSA); terminal stem loop, single-stranded loops in central domain.

One molecule from patent US20190201435, “MODULATORS OF VAULT RNAS FOR USE IN THE TREATMENT OF DISEASES” (European Molecular Biology Laboratory, published 2019) can be followed below.

B1: vtRNA1-1 (ssRNA)
RNA: GGCUGGCUUUAGCUCAGCGGUUACUUCGACAGUUCUUUAAUUGAAACAAGCAACCUGUCUGGGUUGUUCGAGACCCGCGGGCGCUCUCCAGUCCUUUU
Turning to B1, the binding result in the data set with MBP tag only was “no binding”. Moreover, the Kd in data set [1] is roughly 60 nM.
